The record followed here is paper PMC12392098, “Predicting the DNA binding specificity of transcription factor mutants using family-level biophysically interpretable machine learning”.

The target in the data set is ASCL2 DBD wild type (human, UniProt Q99929 50-102). Kind of data set: EMSA; preferred over CACGTG probe; 32P EMSA: ~50 nM probe, 0.5/1/2 uM protein, 30 min, reagents as in Feng et al., gel at 4 C; fluorescent EMSA: 5x buffer (50 mM Tris pH 7.5, 250 mM NaCl, 5 mM MgCl2, 20% glycerol, 2.5 mM DTT, 2.5 mM EDTA, 250 ug/ml poly(dI-dC), 1 mg/ml BSA) used at 1x plus half volume protein dialysis buffer (20 mM HEPES pH 7.9, 200 mM NaCl, 10% glycerol, 2 mM MgCl2), gel 0.5x TBE at 4 C. The settings on record: protein: recombinant; tags: N-terminal 6xHis; mScarlet fusion; chain copies: 2; label: 32P (SRI primer strand); blunt. A general note: A gel shift assay detects complexes by their altered migration in electrophoresis.
ASCL2 DBD wild type, sequence (Q99929 50-102): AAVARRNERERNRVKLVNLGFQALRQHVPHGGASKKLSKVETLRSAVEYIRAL

B1: CAGCTG probe (dsDNA)
DNA 1: TAGCCAATAACTTCGTCCCTCAGCTGCATATAAGGAAGATCTAACCACCAATTTGG
DNA 2: CCAAATTGGTGGTTAGATCTTCCTTATATGCAGCTGAGGGACGAAGTTATTGGCTA
As for B1, the binding result is recorded as “binds”.
